Measured values: patent US20220169747A1 (CERTIS THERAPEUTICS, published 2022)
Bridges are numbered along the chain shown (N, C = ends).

T1: control irrelevant peptide H-LEEKKGNYVVTDHC-NH2 coupled to KLH (also: coupled to KLH)
T1 construct: Synthetic negative control; also called control peptide; negative control peptide-KLH
T1 peptide: H-LEEKKGNYVVTDHC-NH2

T2: linear HER2 peptide immunogen H-CPLHNQEVTAEDGTQR-NH2 coupled to KLH (also: coupled to KLH)
T2 construct: Synthetic peptide; also called linear peptide; KLH-linear peptide
T2 peptide: H-CPLHNQEVTAEDGTQR-NH2

T3: cyclic HER2 peptide immunogen H-GCPLHNQEVTAEDGTQRC-NH2 coupled to KLH (human, disulfide 2-18 (inferred); also: coupled to KLH)
T3 construct: also called cyclised peptide; circularised peptide
T3 peptide: H-GCPLHNQEVTAEDGTQRC-NH2

T4: recombinant ErbB4/HER4 ECD (UniProt Q15303 26-651, limits assumed)
T4 construct: extracellular domain; also called ErbB4 ECD
T4 sequence (looked up): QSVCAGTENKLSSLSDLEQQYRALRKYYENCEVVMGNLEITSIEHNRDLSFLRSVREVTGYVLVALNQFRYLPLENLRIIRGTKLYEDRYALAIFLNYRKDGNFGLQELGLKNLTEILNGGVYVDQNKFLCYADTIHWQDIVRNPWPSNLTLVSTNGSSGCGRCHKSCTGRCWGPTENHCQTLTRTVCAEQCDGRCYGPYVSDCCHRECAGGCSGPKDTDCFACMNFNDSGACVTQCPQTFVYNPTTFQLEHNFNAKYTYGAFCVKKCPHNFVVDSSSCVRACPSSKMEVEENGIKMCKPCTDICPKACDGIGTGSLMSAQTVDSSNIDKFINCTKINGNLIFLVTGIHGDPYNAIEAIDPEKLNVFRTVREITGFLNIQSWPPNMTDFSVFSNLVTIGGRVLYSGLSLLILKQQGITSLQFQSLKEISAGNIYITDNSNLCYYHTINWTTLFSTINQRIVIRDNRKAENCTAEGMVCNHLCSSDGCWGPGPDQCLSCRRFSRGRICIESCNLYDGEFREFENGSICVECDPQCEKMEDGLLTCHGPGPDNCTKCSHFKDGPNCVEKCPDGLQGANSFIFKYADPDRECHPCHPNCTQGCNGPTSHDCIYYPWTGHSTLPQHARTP

B1: mAb104 (antibody, IgG1, V domains shown)
VH: EVQLQQSGPELVKPGASVKISCKASGYSFTGYFMHWVRQSHVRSLEWIGRINPYNGDIRYNQNFKDKASLTVDKSSSTAYMELHRLTSEDSAVFYCASLNFAYWGQGTPVTVSA
VL: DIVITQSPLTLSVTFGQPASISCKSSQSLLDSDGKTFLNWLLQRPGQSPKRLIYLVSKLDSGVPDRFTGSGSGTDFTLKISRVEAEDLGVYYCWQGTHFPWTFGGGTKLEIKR
notes: Murine monoclonal purified from hybridoma supernatant
B2: mAb106 (antibody, IgG1, V domains shown)
VH: QIQLVQSGPELKKPGETVKISCKASGYTFTDYGMNWVKQAPGKGLKWMGWINTYTGKPTYDDDFKGRFAFSLETSASTAYLQINNLKNEDMATYFCARRFLNTVAGRSVYFDYWGQGTTLTVSS
VL: QIVLTQSPALMSVSPGEKVTMTCSVSSSVGSMYWYQQKPRSSPKPWIYLTSNLASGVPPRFSGSGSGTSYSLTISSMEGEDAATYYCQQWSSNPPTFGAGTKLELKR
notes: as for B1

What was measured:
[1] = biological target: T1, control irrelevant peptide …; test: ELISA, antigen on the plate, anti-mouse Ig-alkaline phosphatase, pNPP, A405nm
Protocol: (§1) Polystyrene 96-well plates were coated with 3% FCS in PBS for one hour at RT. A final peptide concentration of 1 mg/mL was achieved by diluting the peptide in 0.1% acetic acid. This peptide solution was further diluted to 30 μg/ml in 3% FCS-PBS. Plates were incubated with the linear or cyclic peptide immunogen coupled to KLH, HER2-ECD or negative control peptide-KLH, in dilution buffer (3% FCS-PBS) for one hour at RT. […] Following washing, plates were then incubated with anti-mouse Ig-Alkaline phosphatase (Sigma A-3688), (1:3000 dilutions) for one hour at RT.

[2] = biological target: T2, linear HER2 peptide immunogen …; test: ELISA, antigen on the plate, antibody at 10 ug/mL, anti-mouse Ig-alkaline phosphatase, pNPP, A405nm
Protocol: as §1

[3] = biological target: T3, cyclic HER2 peptide immunogen …; test: as above
Protocol: as §1

[4] = biological target: T5, recombinant ErbB3/HER3 ECD (UniProt P21860 20-643, limits assumed); test: ELISA, plate coated with recombinant HER3 ECD, anti-mouse antibody-alkaline phosphatase, pNPP, A405 nm
T5 construct: extracellular domain; also called ErbB3 ECD
Protocol: (§2) Polystyrene 96-well plates were coated with […], 3 μg/mL recombinant ErbB2 ECD, ErbB3 ECD, ErbB4 ECD or EGFR501 in PBS overnight at 4° C. The plates were blocked with 3% FCS in PBS for one hour at room temperature (RT). Plates were incubated with 10 μg/mL serially diluted purified antibody along with appropriate controls for one hour at RT. Following washing three times, plates were incubated with anti-mouse IgG AP conjugate (1:2000 dilutions) for one hour at RT.

[5] = biological target: T4, recombinant ErbB4/HER4 ECD; test: ELISA, plate coated with recombinant HER4 ECD, anti-mouse antibody-alkaline phosphatase, pNPP, A405 nm
Protocol: as §2

[6] = biological target: T6, recombinant sEGFR ectodomain (EGFR501) (UniProt P00533 25-645, limits assumed); test: ELISA, plate coated with recombinant sEGFR ectodomain, anti-mouse antibody-alkaline phosphatase, pNPP, A405 nm
T6 construct: extracellular domain; also called EGFR/HER1 ectodomain
Protocol: as §2

| Binder | binding result [1] | binding result [2] | binding result [3] | binding result [4] | binding result [5] | binding result [6] |
| --- | --- | --- | --- | --- | --- | --- |
| B1 | no binding (tested: 10 ug/mL) | binds | binds | no binding (tested: 10000 ng/ml) | no binding (tested: 10000 ng/ml) | no binding (tested: 10000 ng/ml) |
| B2 | no binding (tested: 10 ug/mL) | binds | binds |  |  |  |
